Data: IntAct's records for PubMed 28065597

How the values were obtained:
fgfr2_human FGFR2 = fgfr2_human FGFR2 (UniProt P21802)
fgfr4_human FGFR4 = fgfr4_human FGFR4 (UniProt P22455)
igf1r_human IGF1R [1] = target: igf1r_human IGF1R (UniProt P08069)
vgfr2_human KDR = vgfr2_human KDR (UniProt P35968)
erbb4_human ERBB4 = erbb4_human ERBB4 (UniProt Q15303)
grb2_human GRB2 = grb2_human GRB2 (UniProt P62993)
igf1r_human IGF1R [2] = target: igf1r_human IGF1R (UniProt P08069); remark: listed apart in the source

Sequence of Tyrosine-protein phosphatase non-receptor type 6 (Homo sapiens), P29350 C453S (P29350 whole entry C453S): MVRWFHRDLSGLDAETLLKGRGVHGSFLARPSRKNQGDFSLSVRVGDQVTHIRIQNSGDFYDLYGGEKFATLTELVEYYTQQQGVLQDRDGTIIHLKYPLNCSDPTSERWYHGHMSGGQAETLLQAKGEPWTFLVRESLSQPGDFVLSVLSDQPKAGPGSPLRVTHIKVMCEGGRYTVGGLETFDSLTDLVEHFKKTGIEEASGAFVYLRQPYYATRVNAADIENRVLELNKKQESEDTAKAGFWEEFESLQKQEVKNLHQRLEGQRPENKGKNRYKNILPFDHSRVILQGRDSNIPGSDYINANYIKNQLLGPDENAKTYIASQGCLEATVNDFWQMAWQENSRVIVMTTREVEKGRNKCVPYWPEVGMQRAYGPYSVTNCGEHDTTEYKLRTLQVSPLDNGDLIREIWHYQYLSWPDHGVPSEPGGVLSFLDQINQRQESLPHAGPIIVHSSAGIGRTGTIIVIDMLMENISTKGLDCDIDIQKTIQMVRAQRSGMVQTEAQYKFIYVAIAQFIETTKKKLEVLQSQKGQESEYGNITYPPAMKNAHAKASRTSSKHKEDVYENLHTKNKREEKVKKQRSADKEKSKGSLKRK
Sequence of igf1r_human IGF1R (P08069 whole entry, looked up): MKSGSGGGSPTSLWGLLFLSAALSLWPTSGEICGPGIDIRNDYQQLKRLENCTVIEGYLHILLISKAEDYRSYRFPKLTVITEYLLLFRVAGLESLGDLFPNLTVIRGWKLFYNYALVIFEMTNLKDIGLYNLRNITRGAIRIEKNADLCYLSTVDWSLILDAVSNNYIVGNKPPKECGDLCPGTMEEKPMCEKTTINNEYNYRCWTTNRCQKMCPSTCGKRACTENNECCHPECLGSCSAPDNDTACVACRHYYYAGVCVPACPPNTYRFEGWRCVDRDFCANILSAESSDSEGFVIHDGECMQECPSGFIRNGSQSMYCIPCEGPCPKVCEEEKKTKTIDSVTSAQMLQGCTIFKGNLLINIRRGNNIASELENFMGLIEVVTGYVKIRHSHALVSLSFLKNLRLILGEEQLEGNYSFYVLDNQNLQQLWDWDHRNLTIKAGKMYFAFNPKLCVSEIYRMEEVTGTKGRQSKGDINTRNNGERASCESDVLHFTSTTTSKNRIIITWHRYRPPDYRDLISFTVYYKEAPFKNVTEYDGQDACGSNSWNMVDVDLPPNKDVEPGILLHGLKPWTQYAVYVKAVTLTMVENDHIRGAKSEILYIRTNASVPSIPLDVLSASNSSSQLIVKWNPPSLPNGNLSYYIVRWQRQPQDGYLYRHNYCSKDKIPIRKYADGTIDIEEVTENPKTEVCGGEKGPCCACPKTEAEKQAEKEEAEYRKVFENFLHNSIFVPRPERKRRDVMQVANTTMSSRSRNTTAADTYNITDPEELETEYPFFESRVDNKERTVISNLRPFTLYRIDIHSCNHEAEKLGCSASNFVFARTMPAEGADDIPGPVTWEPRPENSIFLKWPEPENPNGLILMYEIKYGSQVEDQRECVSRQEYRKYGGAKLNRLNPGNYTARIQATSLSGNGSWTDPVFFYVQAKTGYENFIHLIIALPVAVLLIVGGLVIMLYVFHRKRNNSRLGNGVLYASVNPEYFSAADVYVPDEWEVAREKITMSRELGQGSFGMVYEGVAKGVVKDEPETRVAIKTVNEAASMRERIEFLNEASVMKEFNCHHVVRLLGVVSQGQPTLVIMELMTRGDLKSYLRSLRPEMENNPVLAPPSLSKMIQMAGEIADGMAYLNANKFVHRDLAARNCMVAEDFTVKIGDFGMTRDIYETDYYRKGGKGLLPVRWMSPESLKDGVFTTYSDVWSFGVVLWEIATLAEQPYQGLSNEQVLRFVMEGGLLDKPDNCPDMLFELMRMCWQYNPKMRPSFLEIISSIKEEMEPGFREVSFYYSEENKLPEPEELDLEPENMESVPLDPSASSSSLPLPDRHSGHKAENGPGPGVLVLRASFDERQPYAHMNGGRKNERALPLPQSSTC
Sequence of Tyrosine-protein phosphatase non-receptor type 6 (Homo sapiens), P29350 D419A;C453S (P29350 whole entry D419A/C453S): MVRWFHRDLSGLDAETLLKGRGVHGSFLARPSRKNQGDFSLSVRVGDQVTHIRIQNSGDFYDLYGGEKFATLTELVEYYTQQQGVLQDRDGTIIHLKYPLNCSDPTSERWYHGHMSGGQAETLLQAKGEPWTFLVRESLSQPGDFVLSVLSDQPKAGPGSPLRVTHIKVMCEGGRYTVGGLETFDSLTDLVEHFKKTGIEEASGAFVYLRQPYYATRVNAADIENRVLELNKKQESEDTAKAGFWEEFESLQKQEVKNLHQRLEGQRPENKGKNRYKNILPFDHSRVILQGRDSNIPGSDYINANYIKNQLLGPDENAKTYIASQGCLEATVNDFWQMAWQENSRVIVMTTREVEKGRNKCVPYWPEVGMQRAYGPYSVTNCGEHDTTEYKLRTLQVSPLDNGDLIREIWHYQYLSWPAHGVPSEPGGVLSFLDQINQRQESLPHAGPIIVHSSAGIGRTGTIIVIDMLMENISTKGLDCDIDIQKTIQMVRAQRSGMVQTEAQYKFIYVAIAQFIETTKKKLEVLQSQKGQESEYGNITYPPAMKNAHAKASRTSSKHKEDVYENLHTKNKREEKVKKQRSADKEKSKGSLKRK
Sequence of fgfr2_human FGFR2 (P21802 whole entry, looked up): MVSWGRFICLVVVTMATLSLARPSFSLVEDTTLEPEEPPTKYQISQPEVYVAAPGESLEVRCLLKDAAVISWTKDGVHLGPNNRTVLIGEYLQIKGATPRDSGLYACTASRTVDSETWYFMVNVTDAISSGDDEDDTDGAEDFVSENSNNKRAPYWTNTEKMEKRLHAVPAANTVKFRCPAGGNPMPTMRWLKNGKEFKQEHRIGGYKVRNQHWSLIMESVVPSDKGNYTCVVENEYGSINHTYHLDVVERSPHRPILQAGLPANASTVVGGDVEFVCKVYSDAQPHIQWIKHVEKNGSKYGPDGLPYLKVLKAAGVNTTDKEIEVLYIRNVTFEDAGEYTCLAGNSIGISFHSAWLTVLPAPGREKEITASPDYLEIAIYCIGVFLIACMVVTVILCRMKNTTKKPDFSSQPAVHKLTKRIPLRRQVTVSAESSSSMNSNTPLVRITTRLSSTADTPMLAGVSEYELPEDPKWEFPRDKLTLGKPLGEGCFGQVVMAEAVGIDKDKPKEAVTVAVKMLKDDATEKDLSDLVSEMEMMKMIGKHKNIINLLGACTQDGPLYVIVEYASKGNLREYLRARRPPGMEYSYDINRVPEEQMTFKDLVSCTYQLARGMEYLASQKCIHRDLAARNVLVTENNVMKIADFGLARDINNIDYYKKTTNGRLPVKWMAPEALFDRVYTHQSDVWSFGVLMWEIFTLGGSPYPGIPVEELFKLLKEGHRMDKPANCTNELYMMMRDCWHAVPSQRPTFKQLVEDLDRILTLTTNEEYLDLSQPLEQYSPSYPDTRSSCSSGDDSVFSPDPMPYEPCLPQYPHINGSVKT
Sequence of erbb4_human ERBB4 (Q15303 whole entry): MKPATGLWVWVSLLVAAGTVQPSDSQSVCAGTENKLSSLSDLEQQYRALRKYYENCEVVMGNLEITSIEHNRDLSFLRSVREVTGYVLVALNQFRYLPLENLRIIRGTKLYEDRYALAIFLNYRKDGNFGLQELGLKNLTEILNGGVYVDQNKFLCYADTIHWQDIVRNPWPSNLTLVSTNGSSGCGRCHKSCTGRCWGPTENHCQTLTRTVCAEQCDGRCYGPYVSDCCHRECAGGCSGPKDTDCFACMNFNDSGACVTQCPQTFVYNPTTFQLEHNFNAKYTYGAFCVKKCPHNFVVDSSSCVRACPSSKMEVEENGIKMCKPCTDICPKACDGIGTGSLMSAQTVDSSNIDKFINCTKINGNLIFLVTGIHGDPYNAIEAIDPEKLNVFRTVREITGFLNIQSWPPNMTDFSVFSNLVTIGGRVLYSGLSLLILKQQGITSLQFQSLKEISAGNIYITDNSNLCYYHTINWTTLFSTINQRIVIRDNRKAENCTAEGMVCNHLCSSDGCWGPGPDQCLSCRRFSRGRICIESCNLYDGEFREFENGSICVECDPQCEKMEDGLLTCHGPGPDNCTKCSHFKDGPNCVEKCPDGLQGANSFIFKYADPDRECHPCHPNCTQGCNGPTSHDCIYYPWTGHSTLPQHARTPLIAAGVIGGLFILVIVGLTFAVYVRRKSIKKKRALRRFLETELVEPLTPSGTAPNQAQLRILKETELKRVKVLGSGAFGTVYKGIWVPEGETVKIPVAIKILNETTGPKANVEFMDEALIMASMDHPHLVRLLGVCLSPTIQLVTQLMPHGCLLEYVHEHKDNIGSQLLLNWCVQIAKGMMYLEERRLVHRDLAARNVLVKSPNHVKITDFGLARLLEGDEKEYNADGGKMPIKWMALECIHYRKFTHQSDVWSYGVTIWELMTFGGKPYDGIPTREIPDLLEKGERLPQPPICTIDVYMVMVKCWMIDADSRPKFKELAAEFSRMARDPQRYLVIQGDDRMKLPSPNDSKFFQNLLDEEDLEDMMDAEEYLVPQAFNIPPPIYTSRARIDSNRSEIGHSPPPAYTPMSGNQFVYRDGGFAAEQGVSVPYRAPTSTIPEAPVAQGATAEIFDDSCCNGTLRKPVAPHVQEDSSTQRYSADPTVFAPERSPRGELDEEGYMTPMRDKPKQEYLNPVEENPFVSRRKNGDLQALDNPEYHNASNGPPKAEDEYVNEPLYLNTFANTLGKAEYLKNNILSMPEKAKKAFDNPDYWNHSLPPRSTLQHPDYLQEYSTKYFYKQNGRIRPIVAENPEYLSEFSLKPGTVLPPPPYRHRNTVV
Sequence of grb2_human GRB2 (P62993 whole entry, looked up): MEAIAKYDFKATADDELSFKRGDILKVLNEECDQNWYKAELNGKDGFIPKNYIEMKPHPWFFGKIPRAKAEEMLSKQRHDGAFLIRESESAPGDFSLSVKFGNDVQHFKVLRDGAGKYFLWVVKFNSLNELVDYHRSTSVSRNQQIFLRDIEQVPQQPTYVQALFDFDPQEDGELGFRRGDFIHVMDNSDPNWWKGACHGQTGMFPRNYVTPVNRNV

| Substance | effect of a mutation on the interaction (fgfr2_human FGFR2) | effect of a mutation on the interaction (fgfr4_human FGFR4) | effect of a mutation on the interaction (igf1r_human IGF1R [1]) | effect of a mutation on the interaction (vgfr2_human KDR) | effect of a mutation on the interaction (erbb4_human ERBB4) | effect of a mutation on the interaction (grb2_human GRB2) | effect of a mutation on the interaction (igf1r_human IGF1R [2]) |
| --- | --- | --- | --- | --- | --- | --- | --- |
| Tyrosine-protein phosphatase non-receptor type 6 (Homo sapiens), P29350 C453S | with no effect | with no effect | decreasing interaction | with no effect | with no effect | – | – |
| Receptor-type tyrosine-protein phosphatase alpha (Homo sapiens) (from UniProt P18433) Y798F | – | – | – | – | – | decreasing interaction | – |
| Tyrosine-protein phosphatase non-receptor type 6 (Homo sapiens), P29350 D419A;C453S | with no effect | with no effect | decreasing interaction | with no effect | with no effect | – | with no effect |
